This is an account of results in paper PMC7735759, “Structural basis of TRPC4 regulation by calmodulin and pharmacological agents” (eLife, 2020).

Experiment [1] has as its target Zebrafish TRPC4 (Danio rerio TRPC4, residues 2-915) (Danio rerio (zebrafish)). Kind of experiment: cryo-EM structure; TRPC4-CaM complex in LMNG, 10 mM calcium chloride, 10 µM CaM added; 3D sorting without symmetry for the stoichiometries.
Experiment [2] has the same target. The experiment is described as follows: cryo-EM structure; TRPC4 alone: apo in LMNG, and in amphipols with 100 µM GFB-8438, GFB-9289 or GFB-8749; C4 symmetry.
Experiment [3] has as its target T1, TRPC4 (Danio rerio, UniProt U3N7D8).
T1 construct: gene trpc4b; residues 2–915
T1 sequence (U3N7D8 2-915): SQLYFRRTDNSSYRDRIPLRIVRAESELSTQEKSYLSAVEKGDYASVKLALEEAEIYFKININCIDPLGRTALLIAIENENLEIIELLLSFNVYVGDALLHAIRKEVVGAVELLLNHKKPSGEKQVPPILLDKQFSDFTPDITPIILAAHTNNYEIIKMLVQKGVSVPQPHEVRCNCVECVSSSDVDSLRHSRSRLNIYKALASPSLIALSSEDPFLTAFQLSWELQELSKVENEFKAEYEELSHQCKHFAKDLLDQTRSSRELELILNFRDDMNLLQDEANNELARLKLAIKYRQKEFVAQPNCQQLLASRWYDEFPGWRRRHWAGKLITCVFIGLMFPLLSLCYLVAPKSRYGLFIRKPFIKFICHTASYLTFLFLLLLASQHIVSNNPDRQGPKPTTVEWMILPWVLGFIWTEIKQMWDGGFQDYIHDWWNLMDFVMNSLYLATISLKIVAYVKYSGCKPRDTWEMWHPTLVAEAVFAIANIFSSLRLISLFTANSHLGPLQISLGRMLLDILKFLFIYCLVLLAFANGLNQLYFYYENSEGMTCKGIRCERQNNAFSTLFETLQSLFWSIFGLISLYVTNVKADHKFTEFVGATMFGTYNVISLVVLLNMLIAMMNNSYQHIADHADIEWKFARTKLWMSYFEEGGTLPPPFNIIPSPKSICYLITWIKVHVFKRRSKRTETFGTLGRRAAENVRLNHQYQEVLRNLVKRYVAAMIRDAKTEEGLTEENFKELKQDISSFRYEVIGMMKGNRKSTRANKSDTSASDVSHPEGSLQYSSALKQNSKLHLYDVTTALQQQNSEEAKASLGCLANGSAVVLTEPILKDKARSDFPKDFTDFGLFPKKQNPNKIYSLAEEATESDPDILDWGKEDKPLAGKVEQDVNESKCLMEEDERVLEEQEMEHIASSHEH
Kind of experiment: cryo-EM structure at […] Å; also dose-dependent inhibition of (-)-Englerin A currents in TRPC4-expressing oocytes. The class given is binding.

The target of experiment [4] is T1, TRPC4. The experiment is described as above. Format: binding. The source holds these as a separate data set.
Experiment [5] has as its target T1, TRPC4. The experiment is described as above. Format: binding. This is another data set of the same source.

On to “Mouse calmodulin (CaM) (from UniProt P0DP26 1-149) (natural protein)”, for which, in experiment [1], the percent of TRPC4 channels with four CaM bound (fully saturated) stood at 20%, the percent of TRPC4 channels with one CaM bound was found to be 13%, the percent of TRPC4 channels with three CaM bound was 31% and the percent of TRPC4 channels with two CaM bound stood at 35%. The stoichiometry N (CaM per TRPC4 tetramer) in experiment [1] is less than 4.
Regarding “Zebrafish TRPC4 (Danio rerio TRPC4, residues 2-915) (natural protein)”, the stoichiometry N in experiment [1] and in experiment [2] was 4 in each case.
As to `O=C1CN(c2cn[nH]c(=O)c2Cl)CCN1C1CCCCC1` [GFB-9289, 4-chloro-5-(4-cyclohexyl-3-oxopiperazin-1-yl)-2,3-dihydropyridazin-3-one], on TRPC4 [3], the “cryo-EM structure at 3.2 Å; also dose-dependent inhibition of (-)-Englerin A cur” value is “we found an extra density inside the VSL domain region of GFB-9289-bound TRPC4”.
For `O=C1CN(c2cn[nH]c(=O)c2Cl)CCN1Cc1ccccc1C(F)(F)F` [GFB-8438], the “cryo-EM structure at 3.6 Å; also dose-dependent inhibition of (-)-Englerin A cur” value on TRPC4 [4] is “The shape of the density clearly indicated that it corresponds to the bound inhibitor”.
Take `O=C1CN(c2cn[nH]c(=O)c2Cl)CCN1CC1CCC(F)(F)CC1` [GFB-8749]: the “cryo-EM structure at 3.8 Å; also dose-dependent inhibition of (-)-Englerin A cur” value on TRPC4 [5] is recorded as “an extra density was observed inside the VSL domain region of GFB-8749-bound TRPC4”.
